In patent US20240238451A1:

Legend:
Experiment in all cases: cell-based or functional assay
[1] = target: EGFP [GFP: P42212]
[2] = target: ALFA-tagged GAL4-VP16
[3] = target: mCherry

NIR-FbGFP-GAL4 fusion
decrease of Gluc bioluminescent signal with mTagBFP2 instead of EGFP (GAL4/UAS reporter, HeLa) [1]: 25 fold | reduction of mCherry reporter level in the absence of EGFP (pUAS-mCherry reporter) [1]: 3 fold

Gluc-biNIR-FbGFP fusion
reduction of secreted Gluc signal with mTagBFP2 instead of EGFP (HeLa) [1]: 78%

NIR-FbGFP-NbALFA (bispecific antibody)
reduction of Gluc signal without EGFP against EGFP-expressing cells (ALFA-GAL4, pUAS-Gluc, HeLa) [2]: 75%

bispecific NIR-FbGFP-NIR-FbmCherry fusion (bispecific antibody)
drop of NIR fluorescence when only mCherry (no EGFP) is co-expressed [1]: 10 fold | drop of NIR fluorescence when only EGFP (no mCherry) is co-expressed [3]: 10 fold

NIR-FbmCherry-NbGFP fusion (bispecific antibody)
reduction in EGFP fluorescence in the absence of mCherry [1]: 60%

biNIR-FbGFP-GAL4
decrease of Gluc signal with mTagBFP2 instead of EGFP (GAL4/UAS reporter, HeLa) [1]: 50 fold

biNIR-FbGFP-NbALFA (bispecific antibody)
reduction of Gluc signal in the absence of EGFP (ALFA-GAL4, pUAS-Gluc, HeLa) [2]: 85%
